Laboratory results: the supplement of paper PMC12042874
± gives the uncertainty stated by the source.

Experiment: amyloid nucleation score (Sup35N fusion, yeast selection) (log enrichment); library NNK3; higher = more nucleation; inactive = no reads after selection
Method in brief: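 Nucleation score: DiMSum log enrichment of output over input reads, centred on the mode score of non-aggregating sequences. Only sequences with at least 100 input reads were kept. Reads came from Illumina sequencing of plasmid inserts before and after 7 days of growth at 30°C without adenine and uracil, in psi-negative yeast expressing Sup35N fused to peptides of 20 random codons after 24 hours of induction with 100 μM copper sulfate.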

Substance | amyloid nucleation score
FLFIGSFCGCSVSRPDRYYS | 2.57 ± 0.08
FHLKKHWGKHGYFFMEDRRT | inactive
IQYIMTNLGPDYNRFEYM | inactive
NSDMESDSHSNKVVRYLCGP | inactive
LLGRKRA | inactive
NFFVTFICAFEEAYMTKQLR | 2 ± 0.082
PFWWPRKQLYVSQSRKTTAS | inactive
FWWLEI | inactive
CILSVHGGILLFSIGAAFGR | 0.779 ± 0.27
SDKRQLRDR | inactive
GVFWLLNICQYGPRLRHMWS | inactive
FFHSIPKFFRAQKMCTYVPP | inactive
TVRKSSIGGCVASYPFEHNK | inactive
MFQFVFSVQMSGSAFRMFMK | inactive
SAACLIMCVLLSILVQIFGM | inactive
WTRNTKLVEIIKMYYQNVNL | inactive
IATLEDFMFPLFWYCIYLTN | inactive
WVHRIAS | inactive
FILFRYVTNALRKSAWVRLC | inactive
LLLFRGAYRLQISAFCLCTE | inactive
LFYIWQSFQFRN | inactive
YRFTRKDSPSSKVKMISNSW | inactive

Substance | amyloid nucleation score
WNMNYVQFDGNVLVNAD | inactive
DLVYHIEDMFGSMR | 0.547 ± 0.22
CTRNEYIEW | inactive
LKVVLYGVHQSCEYMRSRLS | inactive
EIMYVLTIFSNVFVMFFS | -0.436 ± 0.44
VLLNLSSFMLSTFTLRMS | inactive
MVVMRKSVETTYYWLILAIF | inactive
TSWTGWVRCHIGSSNISALT | inactive
MINWHSRMSSEG | inactive
RSGSMWCLSMLVVHLDELTD | inactive
CFCDVMQFWM | 2.4 ± 0.067
ISHVEYLVLEPSMVYF | -0.349 ± 0.59
PCQDWARYAPGLPLPMGLAL | -0.293 ± 0.89
LRNLNK | inactive
IKQRDN | inactive
MCSETWIYALSICDNLCRD | 1.29 ± 0.16
THNVSKKWLVGVMCINSGRH | 1.59 ± 0.099
LGYIQEN | inactive
KGETDFVLKP | -0.432 ± 0.87
FHTYIELLRALIAIRQGGSF | inactive
KINRVSLLVLGH | inactive
LFLKFDNSSWLMLKVMDTNI | 0.961 ± 0.19

Substance | amyloid nucleation score
TSLLAELLVWWE | inactive
NRYIGNIYEKNGNSNFKPSI | inactive
LLLNMM | inactive
VAFYMMYSSGPQRTRRWVTV | inactive
YLVGCWNYESKN | 0.234 ± 0.25
SISMQVNHPEY | inactive
NMKSCFHRMDPHWGTGFHSL | inactive
SGGYLYRSSLSTVNSEDAMV | inactive
LVWHLHSSSCRARCRIGGGK | inactive
SCSNCVHISRTAILTGPRSA | inactive
VACTVSEAYKCTLIWTHLVR | inactive
GGKLSRNI | inactive
GLVVKSKYMRRFPGTR | inactive
CYWVRDSRLGW | inactive
QYGSLGSTYTSAYLWRLYVL | inactive
SRGVRIDKMVWNVIGFCHGW | 2.8 ± 0.08
WVRRYV | inactive
VTRHEFVLLLETVPISYWPH | inactive
RWLASNVDPKITSEIQPGAS | inactive
DHVGADMGLCDNVG | inactive
MFCMYTRDREIYLVETLLYV | inactive
PVKGSFDT | inactive
